# Assay results taken from US20030049255A1 (published 2003).
# T1: recombinant human IL-1 receptor Accessory Protein (AcP):Fc (human, UniProt Q9NPH3 21-359)
# T1 construct: also called human IL-1AcP:Fc; soluble recombinant human IL-1AcP:Fc
# T1 sequence: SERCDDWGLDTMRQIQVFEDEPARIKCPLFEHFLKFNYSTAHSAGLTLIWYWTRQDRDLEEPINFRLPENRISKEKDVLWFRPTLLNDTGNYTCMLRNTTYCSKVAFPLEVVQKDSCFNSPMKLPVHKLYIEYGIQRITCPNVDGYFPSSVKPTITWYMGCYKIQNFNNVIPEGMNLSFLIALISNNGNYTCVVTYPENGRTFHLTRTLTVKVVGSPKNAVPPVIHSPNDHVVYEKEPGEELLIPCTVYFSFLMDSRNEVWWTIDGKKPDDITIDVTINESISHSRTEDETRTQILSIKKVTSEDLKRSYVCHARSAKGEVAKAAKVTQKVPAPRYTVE
# B1: recombinant human type II IL-1R:Fc (Fc fusion)
# chain: FTLQPAAHTGAARSCRFRGRHYKREFRLEGEPVALRCPQVPYWLWASVSPRINLTWHKNDSARTVPGEEETRMWAQDGALWLLPALQEDSGTYVCTTRNASYCDKMSIELRVFENTDAFLPFISYPQILTLSTSGVLVCPDLSEFTRDKTDVKIQWYKDSLLLDKDNEKFLSVRGTTHLLVHDVALEDAGYYRCVLTFAHEGQQYNITRSIELRIKKKKEETIPVIISPLKTISASLGSRLTIPCKVFLGTGTPLTTMLWWTANDTHIESAYPGGRVTEGPRQEYSENNENYIEVPLIFDPVTREDLHMDFKCVVHNTLSFQTLRTTVKE
# notes: also called human IL-1RII:Fc; soluble recombinant human type II IL 1R:Fc; not shown: Fc portion of human IgG
# B2: human IL-1α (ligand, UniProt P01583 113-271, looked up)
# chain: SAPFSFLSNVKYNFMRIIKYEFILNDALNQSIIRANDQYLTAAALHNLDEAVKFDMGAYKSSKDDAKITVILRISKTQLYVTAQDEDQPVLLKEMPEIPKTITGSETNLLFFWETHGTKNYFTSVAHPNLFIATKQDYWVCLAGGPPSITDFQILENQA
# notes: also called IL-1 alpha
# Legend:
# [1] = target: recombinant rhesus IL-1β (rhesus) (UniProt P48090); test: cell-based or functional assay
# [2] = target: recombinant rhesus IL-1α (rhesus) (UniProt P48089); test: cell-based or functional assay
# [3] = target: cynomolgus IL-1β (cynomolgus macaque) (UniProt P79182); test: SPR, BIACORE 3000, both Fc fusions captured, ligand in flow
# [4] = target: B1; test: SPR, BIACORE 3000, receptor:Fc captured, ligand in flow, without cynomolgus IL-1AcP
# [5] = target: B2; test: SPR, BIACORE 3000, receptor:Fc captured on anti-human IgG Fc, ligand in flow, 25 C, without IL-1AcP
# Protocol: (§1) The relative ability of purified soluble type II IL-1R to bind IL-1α, IL-1β and IL-1ra was measured using a BIACORE 3000 instrument with a research grade CM5 sensor chip at 25 degrees C. Soluble recombinant human type II IL-1R was fused to the Fc portion of human IgG so that the resulting type II IL-1R:Fc construct could be bound to a goat anti-human IgG, Fc chain-specific antibody immobilized to the chip using standard amine coupling chemistry. A similar construct was made using IL-1AcP for the same reason. When IL-1AcP:Fc was used in combination with type II IL-1R:Fc, it was mixed in a 1:1 molar ratio before injection into the BIACORE 3000. Kinetic data were obtained by running a range of concentrations of IL-1α, IL-1β, and IL-1 ra over a flow cell that contained receptor bound to immobilized antibody, and a reference cell of immobilized antibody alone. […] In the presence of human IL-1AcP:Fc, the apparent equilibrium binding constants of human type II IL-1R:Fc for human IL-1α and IL-1β were increased >100-fold over those measured in the absence of human IL-1AcP. Human IL-1AcP:Fc slowed the dissociation rates of both ligands by 100-fold. In contrast, human IL-1AcP:Fc had little effect on the affinity of human IL-1RII:Fc for human IL-1ra. In the absence of receptor, no binding of human IL-1α, IL-1β, and IL-1ra to human IL-1AcP:Fc was detected.
# [6] = target: T1, recombinant human IL-1 receptor …; test: SPR, BIACORE 3000, Fc fusion captured on anti-human IgG Fc, ligand in flow
# Protocol: as §1
# Chain of cynomolgus IL-1β (cynomolgus macaque) (P79182 117-268 limits assumed): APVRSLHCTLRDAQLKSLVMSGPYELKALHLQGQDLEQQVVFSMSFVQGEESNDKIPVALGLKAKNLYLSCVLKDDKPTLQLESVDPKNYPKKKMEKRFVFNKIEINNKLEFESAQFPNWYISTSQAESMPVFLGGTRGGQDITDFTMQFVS
# Chain of recombinant rhesus IL-1β (rhesus) (P48090 117-269 limits assumed): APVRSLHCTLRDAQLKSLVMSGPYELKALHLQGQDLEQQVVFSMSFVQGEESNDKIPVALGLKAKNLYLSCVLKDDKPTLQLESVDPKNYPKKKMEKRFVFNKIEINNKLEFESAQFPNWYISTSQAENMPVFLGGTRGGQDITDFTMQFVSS
molecule,measurement,setting,value
soluble IL-1R Type II in the presence of IL-1RAcP (from UniProt P27930 14-343; Q9NPH3 21-367),NF-κB luciferase reporter activity in COS7 cells,[1],25 fold
same,NF-κB luciferase reporter activity in COS7 cells,[2],25 times
human type II IL-1R:Fc in the presence of cynomolgus IL-1AcP:Fc (from UniProt A0A7N9CMI5 18-336),Ka,[3],1.8e+08 M⁻¹
same,fold increase of apparent affinity over that without IL-1AcP,[3],> 100 fold
"cynomolgus IL-1ra (ligand, cynomolgus macaque, UniProt Q866R8 26-177, looked up, also called cynomolgus macaque IL-1 receptor antagonist) RPSGRKPSKMQAFRIWDVNQKTFYLRNNQLVAGYLQGPNVNLEEKIDVVPIEPHALFLGIHGGKMCLSCVKSGDETRLQLEAVNITDLSKNRKQDKRFAFVRSDSGPTTSFESAACPGWFLCTAMEADQPVSLTNMPDKGVMVTKFYFQEDE",Ka,[4],6.2e+07 M⁻¹
B1,fold lower affinity than for human IL-1β,[5],100 fold
"cynomolgus IL-1α (ligand, cynomolgus macaque, UniProt P79340 113-271, looked up, also called cynomolgus macaque IL-1α) SAPFSFLSNMTYHFIRIIKHEFILNDTLNQTIIRANDQYLTAAAIHNLDEAVKFDMGAYTSSKDDTKVPVILRISKTQLYVSAQDEDQPVLLKEMPEIPKTITGSETNFLFFWETHGTKNYFISVAHPNLFIATKHDNWVCLAKGLPSITDFQILENQA",Ka,[4],1.4e+06 M⁻¹
B2,binding result,[6],no binding
